The values that follow are results of earlier work, collected in PMC2288786 (BMC Structural Biology, 2008).

This data set concerns the target CaM. Conditions: previously observed for full-length MBP; ref [18],[21]. From the text: Background The myelin sheath is a multilamellar membrane structure wrapped around the axon, enabling the saltatory conduction of nerve impulses in vertebrates. […] In this study, we focus on a 19-mer synthetic peptide from the predicted calmodulin-binding segment near the C-terminus of human myelin basic protein. […] The binding of the ...

B1: full-length myelin basic protein: full-length myelin basic protein of earlier studies (protein, UniProt P02686 1-304, looked up)
chain: MGNHAGKRELNAEKASTNSETNRGESEKKRNLGELSRTTSEDNEVFGEADANQNNGTSSQDTAVTDSKRTADPKNAWQDAHPADPGSRPHLIRLFSRDAPGREDNTFKDRPSESDELQTIQEDSAATSESLDVMASQKRPSQRHGSKYLATASTMDHARHGFLPRHRDTGILDSIGRFFGGDRGAPKRGSGKDSHHPARTAHYGSLPQKSHGRTQDENPVVHFFKNIVTPRTPPPSQGKGRGLSLSRFSWGAEGQRPGFGYGGRASDYKSAHKGFKGVDAQGTLSKIFKLGGRDSRSGSPMARR
modifications: full-length
notes: full-length myelin basic protein of earlier studies
Turning to B1, the Kd in words result is listed as “low μM range”.
